Results published in PMC3724861.

The sequences below were run against T1, Caup homeodomain (Drosophila melanogaster) (UniProt P54269). Conditions: PBM.
T1 sequence: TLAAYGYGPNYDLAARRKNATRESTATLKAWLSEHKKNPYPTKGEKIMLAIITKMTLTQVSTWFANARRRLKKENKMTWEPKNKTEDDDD
In the case of “AACATGTAA (double strand) [9-mer AACATGTAA]”, the binding signal (minimum E-score of the two 8-mers) is reported as 0.468. “AACATGTAC (double strand) [9-mer AACATGTAC]” was tested, and the binding signal (minimum E-score of the two 8-mers) was 0.48. “AACATGTAG (double strand) [9-mer AACATGTAG]” gave a binding signal (minimum E-score of the two 8-mers) of 0.476. Sequence “AACATGTAT (double strand) [9-mer AACATGTAT]” has a binding signal (minimum E-score of the two 8-mers) of 0.469. With “ACATGTACA (double strand) [9-mer ACATGTACA]” the binding signal (minimum E-score of the two 8-mers) was 0.469. Work on “ATACATGTA (double strand) [9-mer ATACATGTA]” yielded a binding signal (minimum E-score of the two 8-mers) of 0.469. In the case of “ATACATGTC (double strand) [9-mer ATACATGTC]”, the binding signal (minimum E-score of the two 8-mers) is reported as 0.469. In the case of “ATGTACATG (double strand) [9-mer ATGTACATG]”, the binding signal (minimum E-score of the two 8-mers) is reported as 0.469. “CTACATGTA (double strand) [9-mer CTACATGTA]” showed a binding signal (minimum E-score of the two 8-mers) of 0.476. “CTACATGTC (double strand) [9-mer CTACATGTC]” was tested, and the binding signal (minimum E-score of the two 8-mers) was 0.476. For “GACATGTAA (double strand) [9-mer GACATGTAA]”, the binding signal (minimum E-score of the two 8-mers) was 0.468. Work on “GACATGTAC (double strand) [9-mer GACATGTAC]” yielded a binding signal (minimum E-score of the two 8-mers) of 0.477. For “GTACATGTA (double strand) [9-mer GTACATGTA]”, the binding signal (minimum E-score of the two 8-mers) was 0.48. Work on “TACATGTAA (double strand) [9-mer TACATGTAA]” yielded a binding signal (minimum E-score of the two 8-mers) of 0.468. “TACATGTCA (double strand) [9-mer TACATGTCA]” showed a binding signal (minimum E-score of the two 8-mers) of 0.461.
